In patent publication US20070131547A1 one finds maximum electric power (glutamic acid fuel cell) and shortcircuit current density (glutamic acid fuel cell) data, which are given here for one substance.

In the test the target is goxDp-Dzip2 (diaphorase derived from Gluconobacter oxydans, Dzip2 association site fused at the C-terminal side) (Gluconobacter oxydans). Kind of test: cell-based or functional assay.

With “His-bmaEDH-Dzip1 (glutamic acid dehydrogenase derived from Burkholderia mallei, His tag, Dzip1 assoc (enzyme)”, the maximum electric power (glutamic acid fuel cell) came to 106 µW/cm^2 and the shortcircuit current density (glutamic acid fuel cell) worked out at 1230 µA/cm^2.
